Experimental data taken from PMC8951219.

Test system: MSA-R2c (p57, major soluble antigen, IPT-domain construct) (Renibacterium salmoninarum)
Test: plate binding assay with immobilized protein, bound aptamer quantified by qPCR
Details: 20 mM Tris-HCl pH 7.4, room temperature, 1 h; wells coated with 50 uL of 2.5 uM protein, 1% BSA block; aptamer 0.0205-41 nM, heated at 95 C for 5 min; no added …

Sequence: ATGATACGGCGACCACCTAACCATTTTCACTGTTTGTTTAATATATATAGTTTTATGGTATAGCGTCGTGTAGGGAAAGA [Aptamer-4]
- Kd: 3 nM
